As a reminder, the Km is the substrate concentration at which the rate is half of its maximum. Usually kcat stands for the number of substrate molecules converted per active site and unit of time at saturation. A word on the kcat/Km: it is the turnover number divided by the Michaelis constant.

The data set concerns NC(=O)N[C@H]1NC(=O)NC1=O. The experiment in a line: purified protein. To be noted: free enzyme, 70 nM monomer, 20 mM potassium phosphate, pH 7.4, 37 °C, racemic allantoin added, table states (S)-allantoin, unclear whether concentration counts racemate or S form.

As for “puuE (allantoinase from Pseudomonas fluorescens) (Pseudomonas fluorescens Pf0-1)”, the Km stood at 1.35 ± 0.43 mM, the kcat amounted to 102 s⁻¹ and the kcat/Km was 75200 M⁻¹ s⁻¹.

Values taken from PMC6983136.
